B2: CUL4B (endogenous) (other, UniProt Q13620 1-913, looked up)
chain: MMSQSSGSGDGNDDEATTSKDGGFSSPSPSAAAAAQEVRSATDGNTSTTPPTSAKKRKLNSSSSSSSNSSNEREDFDSTSSSSSTPPLQPRDSASPSTSSFCLGVSVAASSHVPIQKKLRFEDTLEFVGFDAKMAEESSSSSSSSSPTAATSQQQQLKNKSILISSVASVHHANGLAKSSTTVSSFANSKPGSAKKLVIKNFKDKPKLPENYTDETWQKLKEAVEAIQNSTSIKYNLEELYQAVENLCSYKISANLYKQLRQICEDHIKAQIHQFREDSLDSVLFLKKIDRCWQNHCRQMIMIRSIFLFLDRTYVLQNSMLPSIWDMGLELFRAHIISDQKVQNKTIDGILLLIERERNGEAIDRSLLRSLLSMLSDLQIYQDSFEQRFLEETNRLYAAEGQKLMQEREVPEYLHHVNKRLEEEADRLITYLDQTTQKSLIATVEKQLLGEHLTAILQKGLNNLLDENRIQDLSLLYQLFSRVRGGVQVLLQQWIEYIKAFGSTIVINPEKDKTMVQELLDFKDKVDHIIDICFLKNEKFINAMKEAFETFINKRPNKPAELIAKYVDSKLRAGNKEATDEELEKMLDKIMIIFRFIYGKDVFEAFYKKDLAKRLLVGKSASVDAEKSMLSKLKHECGAAFTSKLEGMFKDMELSKDIMIQFKQYMQNQNVPGNIELTVNILTMGYWPTYVPMEVHLPPEMVKLQEIFKTFYLGKHSGRKLQWQSTLGHCVLKAEFKEGKKELQVSLFQTLVLLMFNEGEEFSLEEIKQATGIEDGELRRTLQSLACGKARVLAKNPKGKDIEDGDKFICNDDFKHKLFRIKINQIQMKETVEEQASTTERVFQDRQYQIDAAIVRIMKMRKTLSHNLLVSEVYNQLKFPVKPADLKKRIESLIDRDYMERDKENPNQYNYIA
notes: also called CRL4 component

Assays:
GATAD2B (endogenous) = target: T1, GATAD2B (endogenous) (UniProt Q8WXI9 1-593); assay: co-IP of endogenous FBXO44, control vs SUV39H1 KD (FIG. 3I; its legend names GATAD2A)
T1 construct: also called Mi-2/NuRD component
T1 sequence (Q8WXI9 whole entry): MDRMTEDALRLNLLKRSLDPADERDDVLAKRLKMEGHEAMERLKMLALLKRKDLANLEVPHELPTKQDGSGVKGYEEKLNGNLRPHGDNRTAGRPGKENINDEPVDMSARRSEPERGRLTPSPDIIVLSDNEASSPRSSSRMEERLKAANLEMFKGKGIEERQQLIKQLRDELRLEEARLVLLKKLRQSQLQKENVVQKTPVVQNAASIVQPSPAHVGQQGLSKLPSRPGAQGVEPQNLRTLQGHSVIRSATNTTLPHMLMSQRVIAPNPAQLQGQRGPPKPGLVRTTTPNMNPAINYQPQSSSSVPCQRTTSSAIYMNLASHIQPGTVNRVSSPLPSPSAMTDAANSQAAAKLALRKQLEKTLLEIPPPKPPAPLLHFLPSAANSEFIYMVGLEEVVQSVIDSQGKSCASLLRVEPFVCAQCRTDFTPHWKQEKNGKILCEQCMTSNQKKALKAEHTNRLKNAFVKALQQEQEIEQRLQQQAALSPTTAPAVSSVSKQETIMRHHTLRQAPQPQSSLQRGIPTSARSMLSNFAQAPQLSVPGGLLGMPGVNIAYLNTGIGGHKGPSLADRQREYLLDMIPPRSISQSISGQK
Experimental: (§1) Immunoprecipitation or co-immunoprecipitation (IP or co-IP): for IP, cells were lysed in IP buffer (50 mM Tris-HCl [pH 7.4], 125 mM NaCl, 1 mM EDTA, 0.1% Triton X-100) with inhibitors (50 mM NaF, 1 mM PMSF, 1 mM Na₃VO₄, 1 μg/mL Aprotinin, 1 μg/mL Leupeptin, 1 μg/mL Pepstatin) followed by sonication and centrifugation to clear insoluble debris. Lysates were then incubated with protein G agarose beads and IgG antibody of the same species as the IP antibody for 2 hr at 4° C. to reduce non-specific binding. The cleared lysates were then incubated with IP antibody overnight at 4° C. Specifically, for Flag IP, 5 μg of anti-Flag antibody (Sigma-Aldrich no. F7425) was used for 2500 μg of protein lysate. For Myc IP, anti-Myc antibody (Cell Signaling Technology no. 2276) was used at 1:1000 dilution. For FBXO44 IP, 5 μL of anti-FBXO44 antibody (Sigma-Aldrich no. HPA003363) was used for 10⁶ cells. Beads were washed with IP buffer, boiled in 1×SDS gel loading buffer, and subjected to electrophoresis.
(§2) Next, to characterize FBXO44's molecular interactions with interactions with SUV39H1, CRL4RBBP4/7, and Mi-2/NuRD, Co-IP experiments were performed as described in example 3. For SUV39H1 IP, anti-SUV39H1 antibody (Millipore no. 05-615) was used at 1:100 dilution. For CUL4B IP, 2 μg of anti-CUL4B antibody (Proteintech no. 12916-1-AP) was used for 2500 μg of protein lysate. […]

RBBP4 (endogenous) = target: T2, RBBP4 (endogenous) (UniProt Q09028 2-425); assay: co-IP of endogenous FBXO44 in MDA-MB-231 cells, immunoblot (FIG. 4A)
T2 construct: also called DCAF RBBP4
T2 sequence (Q09028 2-425 limits assumed): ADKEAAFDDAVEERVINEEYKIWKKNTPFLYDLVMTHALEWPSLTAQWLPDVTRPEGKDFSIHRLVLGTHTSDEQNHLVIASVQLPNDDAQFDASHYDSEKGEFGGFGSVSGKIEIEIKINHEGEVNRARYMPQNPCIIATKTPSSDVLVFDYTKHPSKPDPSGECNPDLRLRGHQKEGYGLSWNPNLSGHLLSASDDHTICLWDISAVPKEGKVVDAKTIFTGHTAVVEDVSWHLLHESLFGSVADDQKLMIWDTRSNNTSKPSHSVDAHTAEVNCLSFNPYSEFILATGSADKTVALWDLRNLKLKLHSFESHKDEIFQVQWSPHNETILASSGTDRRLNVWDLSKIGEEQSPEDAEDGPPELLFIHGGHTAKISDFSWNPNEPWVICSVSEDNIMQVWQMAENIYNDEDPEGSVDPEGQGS

RBBP7 (endogenous) = target: T3, RBBP7 (endogenous) (UniProt Q16576 2-425); assay: as above
T3 construct: also called DCAF RBBP7
T3 sequence (Q16576 2-425 limits assumed): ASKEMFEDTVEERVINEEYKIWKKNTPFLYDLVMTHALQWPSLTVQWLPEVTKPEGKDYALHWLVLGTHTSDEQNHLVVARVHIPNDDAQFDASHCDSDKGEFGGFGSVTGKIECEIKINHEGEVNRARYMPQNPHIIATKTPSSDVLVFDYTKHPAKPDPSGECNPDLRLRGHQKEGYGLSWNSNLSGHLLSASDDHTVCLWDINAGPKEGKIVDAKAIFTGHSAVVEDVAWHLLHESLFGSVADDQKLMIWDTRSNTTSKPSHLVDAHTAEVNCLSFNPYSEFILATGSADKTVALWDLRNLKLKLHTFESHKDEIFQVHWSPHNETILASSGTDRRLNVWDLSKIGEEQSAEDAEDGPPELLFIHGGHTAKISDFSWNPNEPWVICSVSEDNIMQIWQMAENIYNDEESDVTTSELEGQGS

Flag-Histone H3.1 = Flag-Histone H3.1 (UniProt P68431 1-136); assay: co-IP of endogenous FBXO44 with Flag-Histone H3.1 or H3.3 (FIG. 5B)
Experimental: as §1

CUL4B (endogenous) = target: B2; assay: co-IP of endogenous FBXO44 in MDA-MB-231 cells, immunoblot; CRL4 components named CUL4A/CUL4B in the legend of FIG. 4A
CUL1 (endogenous) = CUL1 (endogenous) (UniProt Q13616 1-776); assay: IP from chromatin fractions, immunoblot (FIG. 1F)
Chain of CUL1 (endogenous) (Q13616 whole entry): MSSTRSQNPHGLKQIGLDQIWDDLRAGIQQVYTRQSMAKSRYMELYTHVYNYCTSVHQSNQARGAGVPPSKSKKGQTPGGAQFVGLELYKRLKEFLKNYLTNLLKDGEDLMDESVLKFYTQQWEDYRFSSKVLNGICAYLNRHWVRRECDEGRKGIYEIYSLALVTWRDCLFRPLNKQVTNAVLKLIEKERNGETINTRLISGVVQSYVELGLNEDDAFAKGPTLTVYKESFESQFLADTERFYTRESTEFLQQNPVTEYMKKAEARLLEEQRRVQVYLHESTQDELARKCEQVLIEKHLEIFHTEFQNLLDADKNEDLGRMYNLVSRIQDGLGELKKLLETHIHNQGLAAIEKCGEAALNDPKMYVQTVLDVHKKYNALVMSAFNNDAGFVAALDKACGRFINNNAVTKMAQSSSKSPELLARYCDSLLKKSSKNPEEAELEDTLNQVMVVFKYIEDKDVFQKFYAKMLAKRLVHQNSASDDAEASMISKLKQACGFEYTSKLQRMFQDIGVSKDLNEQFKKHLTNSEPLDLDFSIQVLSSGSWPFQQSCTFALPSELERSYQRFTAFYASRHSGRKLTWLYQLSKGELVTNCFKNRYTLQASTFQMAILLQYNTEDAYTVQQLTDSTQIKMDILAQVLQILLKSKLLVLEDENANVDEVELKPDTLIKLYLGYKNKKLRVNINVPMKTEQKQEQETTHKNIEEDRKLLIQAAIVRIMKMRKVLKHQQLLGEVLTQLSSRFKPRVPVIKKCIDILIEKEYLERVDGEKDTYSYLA

DDB1 (endogenous) = target: T4, DDB1 (endogenous) (UniProt Q16531 2-1140); assay: co-IP of endogenous CUL4B with DDB1 (anti-CUL4B antibody), control vs FBXO44 KD cells (FIG. 3G)
T4 construct: also called CRL4 component
T4 sequence (Q16531 2-1140 limits assumed): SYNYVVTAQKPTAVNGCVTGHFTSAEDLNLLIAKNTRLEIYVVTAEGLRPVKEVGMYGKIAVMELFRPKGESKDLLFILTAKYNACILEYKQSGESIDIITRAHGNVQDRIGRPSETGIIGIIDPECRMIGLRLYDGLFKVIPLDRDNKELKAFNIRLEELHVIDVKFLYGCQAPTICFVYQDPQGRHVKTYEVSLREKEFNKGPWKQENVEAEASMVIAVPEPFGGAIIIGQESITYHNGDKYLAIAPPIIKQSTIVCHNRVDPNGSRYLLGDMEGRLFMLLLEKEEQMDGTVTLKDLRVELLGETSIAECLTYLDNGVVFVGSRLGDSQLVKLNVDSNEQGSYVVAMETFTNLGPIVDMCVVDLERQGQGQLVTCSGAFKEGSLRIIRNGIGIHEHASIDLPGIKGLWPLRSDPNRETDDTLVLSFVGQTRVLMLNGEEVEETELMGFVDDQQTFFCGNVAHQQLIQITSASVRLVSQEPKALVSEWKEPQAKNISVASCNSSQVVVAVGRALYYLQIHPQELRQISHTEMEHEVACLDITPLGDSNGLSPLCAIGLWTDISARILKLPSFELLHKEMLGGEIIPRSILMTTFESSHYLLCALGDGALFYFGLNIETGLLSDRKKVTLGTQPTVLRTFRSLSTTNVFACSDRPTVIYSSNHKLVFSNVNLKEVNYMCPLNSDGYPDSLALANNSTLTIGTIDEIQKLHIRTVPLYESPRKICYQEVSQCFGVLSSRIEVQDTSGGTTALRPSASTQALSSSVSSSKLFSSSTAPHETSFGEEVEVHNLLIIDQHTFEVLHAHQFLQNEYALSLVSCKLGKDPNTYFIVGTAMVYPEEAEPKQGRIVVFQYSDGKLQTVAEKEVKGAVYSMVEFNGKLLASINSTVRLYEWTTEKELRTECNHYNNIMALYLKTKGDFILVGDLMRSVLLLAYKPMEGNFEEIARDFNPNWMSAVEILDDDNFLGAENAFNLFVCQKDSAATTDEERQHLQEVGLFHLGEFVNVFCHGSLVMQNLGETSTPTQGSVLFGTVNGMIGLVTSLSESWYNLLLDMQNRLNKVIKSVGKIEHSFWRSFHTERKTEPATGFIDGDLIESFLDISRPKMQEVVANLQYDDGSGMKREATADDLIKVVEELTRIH
Experimental: as §1, §2

Measured: binding result

B1: FBXO44 (endogenous F-box protein FBXO44) (other, human, UniProt Q9H4M3 1-255, looked up)
chain: MAVGNINELPENILLELFTHVPARQLLLNCRLVCSLWRDLIDLVTLWKRKCLREGFITEDWDQPVADWKIFYFLRSLHRNLLHNPCAEEGFEFWSLDVNGGDEWKVEDLSRDQRKEFPNDQVKKYFVTSYYTCLKSQVVDLKAEGYWEELMDTTRPDIEVKDWFAARPDCGSKYQLCVQLLSSAHAPLGTFQPDPATIQQKSDAKWREVSHTFSNYPPGVRYIWFQHGGVDTHYWAGWYGPRVTNSSITIGPPLP
notes: Endogenous protein in cell lysates or chromatin fractions; also called FBX044
binds: GATAD2B (endogenous) | RBBP4 (endogenous) | RBBP7 (endogenous) | Flag-Histone H3.1 | CUL4B (endogenous) | CUL1 (endogenous)

B2
binds: DDB1 (endogenous)

— patent US20230340127A1 (SANFORD BURNHAM PREBYS MEDICAL DISCOVERY INSTITUTE, published 2023)
